Data taken from patent US20140087995A1 (published 2014).
Numbered stars: 1 amine (or outer) side, 2 acyl side, 3 side chain; on linkers, the order of the positions; unused ones are H or OH. Bridge positions count the residues as written; N and C are the ends. Side chains are listed from the residue outwards. Ends that are not written are not given here. * marks the point of attachment. C20 diacid = O=C(O)CCCCCCCCCCCCCCCCCCC(=O)*; γGlu = O=C(O)[C@H](CCC(=O)[*:2])N[*:1]; AEEA = NCCOCCOCC(=O)O

T1: human calcitonin receptor (human, UniProt P30988 25-474)
T1 construct: whole, on cells; Assayed as cell membranes of BHK tk'ts 13 cells stably transfected with the human calcitonin receptor (Assay VII); also called hCTR; hCT
T1 sequence (looked up): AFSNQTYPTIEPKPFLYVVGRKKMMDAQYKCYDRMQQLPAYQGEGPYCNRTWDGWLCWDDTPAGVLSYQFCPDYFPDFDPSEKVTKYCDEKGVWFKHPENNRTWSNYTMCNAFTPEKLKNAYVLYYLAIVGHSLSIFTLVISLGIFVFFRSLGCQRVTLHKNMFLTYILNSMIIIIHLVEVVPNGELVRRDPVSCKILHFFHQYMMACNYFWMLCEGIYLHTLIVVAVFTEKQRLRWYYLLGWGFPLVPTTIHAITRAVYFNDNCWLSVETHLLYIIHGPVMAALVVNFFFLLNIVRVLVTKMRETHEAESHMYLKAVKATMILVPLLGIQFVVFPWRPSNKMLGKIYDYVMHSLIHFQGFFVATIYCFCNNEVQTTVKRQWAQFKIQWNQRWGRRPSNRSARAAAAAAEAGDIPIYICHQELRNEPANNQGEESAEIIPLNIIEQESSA


Experiments:
[1] = target: T1, human calcitonin receptor; assay: IC50 at hCTR divided by IC50 at hAmylin-R (SPA competition assays V and VII)
Summary of the method: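 Scintillation proximity competition binding on cell membranes at 35 ng/μL with SPA beads, in 50 mM Hepes pH 7.4, 1 mM CaCl2, 5 mM MgCl₂, 0.1% OA, 0.02% Tween20. Incubated 120 min at 25° C with shaking. IC₅₀ from one-site competition fit.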

[2] = target: T1, human calcitonin receptor; assay: SPA competition vs 125I-calcitonin, membranes of BHK cells with human calcitonin receptor (Assay VII)
Summary of the method: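 BHK hCTR membranes 35 ng/μL + SPA beads 0.05 mg/well; buffer 50 mM Hepes pH 7.4, 1 mM CaCl2, 5 mM MgCl₂, 0.1% OA, 0.02% Tween20. 120 min, 25° C., shaking. Scintillation count; IC50 by one-site binding competition.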

| Binder | Ratio hCT/hAmylin binding [1] | IC50 [2] |
| --- | --- | --- |
| K([AEEA-γGlu-C20 diacid])CNTATCATQRLAKFLRHSSPNFGAIPSSTPVGSNTY-NH2 (disulfide 2-7; N-terminus assumed; SMILES CC[C@H](C)[C@H](NC(=O)[C@H](C)NC(=O)CNC(=O)[C@H](Cc1ccccc1)NC(=O)[C@H](CC(N)=O)NC(=O)[C@@H]1CCCN1C(=O)[C@H](CO)NC(=O)[C@H](CO)NC(=O)[C@H](Cc1c[nH]cn1)NC(=O)[C@H](CCCNC(=N)N)NC(=O)[C@H](CC(C)C)NC(=O)[C@H](Cc1ccccc1)NC(=O)[C@H](CCCCN)NC(=O)[C@H](C)NC(=O)[C@H](CC(C)C)NC(=O)[C@H](CCCNC(=N)N)NC(=O)[C@H](CCC(N)=O)NC(=O)[C@@H](NC(=O)[C@H](C)NC(=O)[C@@H]1CSSC[C@H](NC(=O)[C@@H](N)CCCCNC(=O)COCCOCCNC(=O)CC[C@H](NC(=O)CCCCCCCCCCCCCCCCCCC(=O)O)C(=O)O)C(=O)N[C@@H](CC(N)=O)C(=O)N[C@@H]([C@@H](C)O)C(=O)N[C@@H](C)C(=O)N[C@@H]([C@@H](C)O)C(=O)N1)[C@@H](C)O)C(=O)N1CCC[C@H]1C(=O)N[C@@H](CO)C(=O)N[C@@H](CO)C(=O)N[C@H](C(=O)N1CCC[C@H]1C(=O)N[C@H](C(=O)NCC(=O)N[C@@H](CO)C(=O)N[C@@H](CC(N)=O)C(=O)N[C@H](C(=O)N[C@@H](Cc1ccc(O)cc1)C(N)=O)[C@@H](C)O)C(C)C)[C@@H](C)O, also called compound 74) | 101 | 0.0799 µM |
| K([AEEA-γGlu-C20 diacid])CNTATCATQRLATFLRHSSPNFGAIPSSTPVGSNTY-NH2 (disulfide 2-7; N-terminus assumed; SMILES CC[C@H](C)[C@H](NC(=O)[C@H](C)NC(=O)CNC(=O)[C@H](Cc1ccccc1)NC(=O)[C@H](CC(N)=O)NC(=O)[C@@H]1CCCN1C(=O)[C@H](CO)NC(=O)[C@H](CO)NC(=O)[C@H](Cc1c[nH]cn1)NC(=O)[C@H](CCCNC(=N)N)NC(=O)[C@H](CC(C)C)NC(=O)[C@H](Cc1ccccc1)NC(=O)[C@@H](NC(=O)[C@H](C)NC(=O)[C@H](CC(C)C)NC(=O)[C@H](CCCNC(=N)N)NC(=O)[C@H](CCC(N)=O)NC(=O)[C@@H](NC(=O)[C@H](C)NC(=O)[C@@H]1CSSC[C@H](NC(=O)[C@@H](N)CCCCNC(=O)COCCOCCNC(=O)CC[C@H](NC(=O)CCCCCCCCCCCCCCCCCCC(=O)O)C(=O)O)C(=O)N[C@@H](CC(N)=O)C(=O)N[C@@H]([C@@H](C)O)C(=O)N[C@@H](C)C(=O)N[C@@H]([C@@H](C)O)C(=O)N1)[C@@H](C)O)[C@@H](C)O)C(=O)N1CCC[C@H]1C(=O)N[C@@H](CO)C(=O)N[C@@H](CO)C(=O)N[C@H](C(=O)N1CCC[C@H]1C(=O)N[C@H](C(=O)NCC(=O)N[C@@H](CO)C(=O)N[C@@H](CC(N)=O)C(=O)N[C@H](C(=O)N[C@@H](Cc1ccc(O)cc1)C(N)=O)[C@@H](C)O)C(C)C)[C@@H](C)O, also called compound 75) | 91.4 | 0.0609 µM |
| K([AEEA-γGlu-C20 diacid])CNTATCATQRLASFLRHSSPNFGAIPSSTPVGSNTY-NH2 (disulfide 2-7; N-terminus assumed; SMILES CC[C@H](C)[C@H](NC(=O)[C@H](C)NC(=O)CNC(=O)[C@H](Cc1ccccc1)NC(=O)[C@H](CC(N)=O)NC(=O)[C@@H]1CCCN1C(=O)[C@H](CO)NC(=O)[C@H](CO)NC(=O)[C@H](Cc1c[nH]cn1)NC(=O)[C@H](CCCNC(=N)N)NC(=O)[C@H](CC(C)C)NC(=O)[C@H](Cc1ccccc1)NC(=O)[C@H](CO)NC(=O)[C@H](C)NC(=O)[C@H](CC(C)C)NC(=O)[C@H](CCCNC(=N)N)NC(=O)[C@H](CCC(N)=O)NC(=O)[C@@H](NC(=O)[C@H](C)NC(=O)[C@@H]1CSSC[C@H](NC(=O)[C@@H](N)CCCCNC(=O)COCCOCCNC(=O)CC[C@H](NC(=O)CCCCCCCCCCCCCCCCCCC(=O)O)C(=O)O)C(=O)N[C@@H](CC(N)=O)C(=O)N[C@@H]([C@@H](C)O)C(=O)N[C@@H](C)C(=O)N[C@@H]([C@@H](C)O)C(=O)N1)[C@@H](C)O)C(=O)N1CCC[C@H]1C(=O)N[C@@H](CO)C(=O)N[C@@H](CO)C(=O)N[C@H](C(=O)N1CCC[C@H]1C(=O)N[C@H](C(=O)NCC(=O)N[C@@H](CO)C(=O)N[C@@H](CC(N)=O)C(=O)N[C@H](C(=O)N[C@@H](Cc1ccc(O)cc1)C(N)=O)[C@@H](C)O)C(C)C)[C@@H](C)O, also called compound 73) | 51.7 | 0.00538 µM |

Second part, the binder after the results:

| Ratio hCT/hAmylin binding [1] | IC50 [2] | Binder |
| --- | --- | --- |
| 101 | 0.0178 µM | K([γGlu-C20 diacid])CNTATCATQRLAAFLRHSSPNFGAIPSSTNVGHNTY-NH2 (disulfide 2-7; N-terminus assumed; SMILES CC[C@H](C)[C@H](NC(=O)[C@H](C)NC(=O)CNC(=O)[C@H](Cc1ccccc1)NC(=O)[C@H](CC(N)=O)NC(=O)[C@@H]1CCCN1C(=O)[C@H](CO)NC(=O)[C@H](CO)NC(=O)[C@H](Cc1c[nH]cn1)NC(=O)[C@H](CCCNC(=N)N)NC(=O)[C@H](CC(C)C)NC(=O)[C@H](Cc1ccccc1)NC(=O)[C@H](C)NC(=O)[C@H](C)NC(=O)[C@H](CC(C)C)NC(=O)[C@H](CCCNC(=N)N)NC(=O)[C@H](CCC(N)=O)NC(=O)[C@@H](NC(=O)[C@H](C)NC(=O)[C@@H]1CSSC[C@H](NC(=O)[C@@H](N)CCCCNC(=O)CC[C@H](NC(=O)CCCCCCCCCCCCCCCCCCC(=O)O)C(=O)O)C(=O)N[C@@H](CC(N)=O)C(=O)N[C@@H]([C@@H](C)O)C(=O)N[C@@H](C)C(=O)N[C@@H]([C@@H](C)O)C(=O)N1)[C@@H](C)O)C(=O)N1CCC[C@H]1C(=O)N[C@@H](CO)C(=O)N[C@@H](CO)C(=O)N[C@H](C(=O)N[C@@H](CC(N)=O)C(=O)N[C@H](C(=O)NCC(=O)N[C@@H](Cc1c[nH]cn1)C(=O)N[C@@H](CC(N)=O)C(=O)N[C@H](C(=O)N[C@@H](Cc1ccc(O)cc1)C(N)=O)[C@@H](C)O)C(C)C)[C@@H](C)O, also called compound 93) |
| 46.3 | 0.00686 µM | K([γGlu-C20 diacid])CNTATCATQRLAAFLRHSSPNFGAIPSSTNVGPNTY-NH2 (disulfide 2-7; N-terminus assumed; SMILES CC[C@H](C)[C@H](NC(=O)[C@H](C)NC(=O)CNC(=O)[C@H](Cc1ccccc1)NC(=O)[C@H](CC(N)=O)NC(=O)[C@@H]1CCCN1C(=O)[C@H](CO)NC(=O)[C@H](CO)NC(=O)[C@H](Cc1c[nH]cn1)NC(=O)[C@H](CCCNC(=N)N)NC(=O)[C@H](CC(C)C)NC(=O)[C@H](Cc1ccccc1)NC(=O)[C@H](C)NC(=O)[C@H](C)NC(=O)[C@H](CC(C)C)NC(=O)[C@H](CCCNC(=N)N)NC(=O)[C@H](CCC(N)=O)NC(=O)[C@@H](NC(=O)[C@H](C)NC(=O)[C@@H]1CSSC[C@H](NC(=O)[C@@H](N)CCCCNC(=O)CC[C@H](NC(=O)CCCCCCCCCCCCCCCCCCC(=O)O)C(=O)O)C(=O)N[C@@H](CC(N)=O)C(=O)N[C@@H]([C@@H](C)O)C(=O)N[C@@H](C)C(=O)N[C@@H]([C@@H](C)O)C(=O)N1)[C@@H](C)O)C(=O)N1CCC[C@H]1C(=O)N[C@@H](CO)C(=O)N[C@@H](CO)C(=O)N[C@H](C(=O)N[C@@H](CC(N)=O)C(=O)N[C@H](C(=O)NCC(=O)N1CCC[C@H]1C(=O)N[C@@H](CC(N)=O)C(=O)N[C@H](C(=O)N[C@@H](Cc1ccc(O)cc1)C(N)=O)[C@@H](C)O)C(C)C)[C@@H](C)O, also called compound 94) |
